The values below come from patent publication US20130260455A1 (ONCOMED PHARMACEUTICALS, published 2013).

In test [1] the target is T1, mutant hNotch2 missing amino acids 375-412 (EGF repeat 10 deleted), on transfected cells (human, UniProt Q04721 26-2471).
T1 construct: also called hNotch2 in the absence of EGF10
Kind of test: FACS on HEK-293 cells transiently transfected with human Notch2 Δaa 375-412 (EGF 10) and GFP. Here is the method: FACS analysis of HEK-293 cells transiently transfected with the indicated Notch expression plasmid and GFP as a transfection control. GFP positive cells indicate expression of the transgene. Anti-Notch2 (59M70) was added at 20 μg/ml and detected by PE-conjugated goat anti-mouse (Caltag, #3004-4). 59R1 (IgG2) was added to the cells at 2 μg/ml and detected by PE-conjugated goat anti-human Fc gamma specific (Jackson Immunochemicals). Ligand binding was determined by incubation of the cells with human DLL4 extracellular domain (ECD) fused to rabbit IgG constant region at 5 μg/ml and detected by PE-conjugated donkey anti-rabbit.

Test [2] deals with T2, hNotch2 H385N AL 388-89 SN mutant, full length, on transfected cells (human, UniProt Q04721 26-2471).
T2 construct: also called mutant hNotch2 in which certain EGF10 residues have been mutated to hNotch1 residues
Kind of test: FACS on transfected cells. The protocol: A comparison analysis of the EGF10 regions of human Notch1, Notch2, and Notch4 and the EGF9 region of human Notch3 (the equivalent of EGF10 in the other Notch receptors) was performed to determine likely binding sites for 59R1 (FIG. 14A). As a result of the analysis, several point mutants were created within full-length Notch2, converting residues within EGF10 to the corresponding amino acids in human Notch 1. Also, conversely, point mutations were made in hNotch1 EGF10 converting residues to the corresponding hN2 residues. Mutants in full-length Notch sequences were generated by QuikChange® mutagenesis (Stratagene) and verified by sequencing. Binding to the mutants was determined by FACS analysis (FIGS. 14B and 14C). 59R1 was detected by PE-conjugated goat anti-human Fc gamma specific antibody (Jackson Immunochemicals, #109-116-170). […] The corresponding residues in hNotch3 are histidine 361, alanine 364, and isoleucine 365.

Test [3] deals with T3, recombinant mouse Notch2 (EGF10-15) (mouse, UniProt O35516 375-605).
T3 construct: domain: EGF10-15; also called mNotch2; m-Notch2
T3 sequence (looked up): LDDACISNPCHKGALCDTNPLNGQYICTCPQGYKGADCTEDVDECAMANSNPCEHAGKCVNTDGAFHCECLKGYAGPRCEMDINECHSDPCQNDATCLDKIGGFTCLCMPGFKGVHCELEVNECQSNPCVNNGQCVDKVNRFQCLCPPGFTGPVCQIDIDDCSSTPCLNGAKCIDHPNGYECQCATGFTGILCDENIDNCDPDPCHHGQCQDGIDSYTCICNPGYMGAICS
Kind of test: Biacore SPR.

Test [4] has as its target T4, human Notch2 as used in the Biacore analysis of Table 6 (construct not stated) (human, UniProt Q04721 375-605, limits assumed).
T4 construct: also called h-Notch2
T4 sequence: T3 sequence (looked up) with V121I, I191V, D194E
Kind of test: Biacore SPR. (Surface plasmon resonance follows binding to a sensor surface in real time, without labels.)

Test [5] deals with T5, recombinant human Notch3 (EGF9-14) (human, UniProt Q9UM47 351-580).
T5 construct: The whole entry for hNotch3 is named here; also called hNotch3; h-Notch3
T5 sequence: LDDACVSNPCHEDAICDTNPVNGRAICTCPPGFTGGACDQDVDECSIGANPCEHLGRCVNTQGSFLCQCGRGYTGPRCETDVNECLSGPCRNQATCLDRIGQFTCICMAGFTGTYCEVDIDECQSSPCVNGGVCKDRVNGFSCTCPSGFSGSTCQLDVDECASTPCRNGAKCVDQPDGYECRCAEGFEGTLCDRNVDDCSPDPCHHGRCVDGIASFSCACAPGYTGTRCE
Description: Biacore SPR.

Test [6] has as its target T6, recombinant mouse Notch3 (EGF9-14) (mouse, UniProt Q61982 352-581).
T6 construct: domain: EGF9-14; also called mNotch3; m-Notch3
T6 sequence (looked up): T5 sequence with N22S, T153M, D193E, T227I
Kind of test: Biacore SPR.

Where a chain is given by its changes, count along the chain named.

T2 sequence (Q04721 26-2471 H385N/A388S/L389N limits assumed): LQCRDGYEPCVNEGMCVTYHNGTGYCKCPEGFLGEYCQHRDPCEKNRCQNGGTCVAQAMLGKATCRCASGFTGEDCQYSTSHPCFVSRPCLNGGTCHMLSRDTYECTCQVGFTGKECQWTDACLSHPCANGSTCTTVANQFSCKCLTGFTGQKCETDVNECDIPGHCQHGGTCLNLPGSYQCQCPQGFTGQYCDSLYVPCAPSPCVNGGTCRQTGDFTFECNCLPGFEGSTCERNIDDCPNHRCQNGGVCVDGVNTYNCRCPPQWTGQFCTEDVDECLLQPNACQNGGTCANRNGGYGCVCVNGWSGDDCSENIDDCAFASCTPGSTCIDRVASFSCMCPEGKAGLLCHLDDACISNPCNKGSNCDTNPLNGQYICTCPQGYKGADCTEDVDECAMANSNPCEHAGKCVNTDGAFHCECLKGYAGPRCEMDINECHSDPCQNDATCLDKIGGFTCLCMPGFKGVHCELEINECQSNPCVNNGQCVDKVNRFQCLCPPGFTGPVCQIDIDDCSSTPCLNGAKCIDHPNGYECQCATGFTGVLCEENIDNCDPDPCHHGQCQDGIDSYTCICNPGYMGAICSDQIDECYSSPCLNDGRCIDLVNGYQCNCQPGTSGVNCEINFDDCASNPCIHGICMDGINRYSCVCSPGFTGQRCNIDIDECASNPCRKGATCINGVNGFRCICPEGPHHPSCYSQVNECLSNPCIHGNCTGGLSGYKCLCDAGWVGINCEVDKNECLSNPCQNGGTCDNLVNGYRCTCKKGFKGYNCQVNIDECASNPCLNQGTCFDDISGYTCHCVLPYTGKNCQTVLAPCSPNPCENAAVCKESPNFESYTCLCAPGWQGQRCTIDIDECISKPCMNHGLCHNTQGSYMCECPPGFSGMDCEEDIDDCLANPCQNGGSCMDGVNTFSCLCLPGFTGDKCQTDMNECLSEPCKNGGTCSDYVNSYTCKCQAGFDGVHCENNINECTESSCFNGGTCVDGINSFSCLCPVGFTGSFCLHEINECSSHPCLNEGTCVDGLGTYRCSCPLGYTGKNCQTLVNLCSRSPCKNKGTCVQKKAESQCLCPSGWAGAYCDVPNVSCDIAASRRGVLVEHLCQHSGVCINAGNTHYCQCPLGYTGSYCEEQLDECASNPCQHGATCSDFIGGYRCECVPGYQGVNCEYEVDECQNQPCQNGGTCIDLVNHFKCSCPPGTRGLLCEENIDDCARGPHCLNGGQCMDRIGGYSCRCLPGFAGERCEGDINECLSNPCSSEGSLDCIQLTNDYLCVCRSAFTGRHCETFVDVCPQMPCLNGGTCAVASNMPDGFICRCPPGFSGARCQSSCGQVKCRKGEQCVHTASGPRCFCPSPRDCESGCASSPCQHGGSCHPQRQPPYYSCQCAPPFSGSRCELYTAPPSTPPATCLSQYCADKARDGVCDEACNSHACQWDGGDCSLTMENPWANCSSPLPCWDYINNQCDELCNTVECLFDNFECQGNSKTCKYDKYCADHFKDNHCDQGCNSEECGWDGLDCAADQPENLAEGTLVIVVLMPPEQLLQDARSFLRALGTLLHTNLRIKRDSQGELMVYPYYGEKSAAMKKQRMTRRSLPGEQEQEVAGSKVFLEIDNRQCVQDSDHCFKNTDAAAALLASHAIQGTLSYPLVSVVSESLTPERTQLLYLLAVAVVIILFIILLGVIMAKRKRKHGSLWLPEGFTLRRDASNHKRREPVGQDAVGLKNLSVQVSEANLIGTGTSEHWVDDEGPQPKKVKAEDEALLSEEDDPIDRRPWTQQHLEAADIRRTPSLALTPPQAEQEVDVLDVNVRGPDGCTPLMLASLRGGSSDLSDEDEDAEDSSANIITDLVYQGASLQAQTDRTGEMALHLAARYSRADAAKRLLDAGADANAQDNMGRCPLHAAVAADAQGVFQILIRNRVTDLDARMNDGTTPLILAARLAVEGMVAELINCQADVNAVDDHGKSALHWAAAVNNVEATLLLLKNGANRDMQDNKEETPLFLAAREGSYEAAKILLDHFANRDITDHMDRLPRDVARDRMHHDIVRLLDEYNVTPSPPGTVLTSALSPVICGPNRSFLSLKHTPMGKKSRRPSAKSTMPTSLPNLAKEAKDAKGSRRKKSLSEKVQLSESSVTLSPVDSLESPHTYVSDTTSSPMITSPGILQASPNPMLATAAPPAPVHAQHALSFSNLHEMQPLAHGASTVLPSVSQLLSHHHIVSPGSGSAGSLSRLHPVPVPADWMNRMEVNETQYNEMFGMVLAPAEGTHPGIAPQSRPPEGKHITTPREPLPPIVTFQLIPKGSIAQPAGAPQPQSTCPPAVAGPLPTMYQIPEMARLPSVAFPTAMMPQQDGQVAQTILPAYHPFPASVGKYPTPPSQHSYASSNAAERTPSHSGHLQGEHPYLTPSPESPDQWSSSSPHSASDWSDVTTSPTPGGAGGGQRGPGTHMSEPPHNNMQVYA

B1: 59R1 IgG2 antibody (antibody, V domains shown)
VH: QVQLVESGGGLVQPGGSLRLSCAASGFTFSSSGMSWVRQAPGKGLEWVSVIASSGSNTYYADSVKGRFTISRDNSKNTLYLQMNSLRAEDTAVYYCARGIFFAIWGQGTLVTVSS
VL: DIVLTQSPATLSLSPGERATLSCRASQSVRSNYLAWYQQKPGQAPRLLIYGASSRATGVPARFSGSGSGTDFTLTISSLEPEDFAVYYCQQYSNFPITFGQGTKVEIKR
notes: Human IgG2/kappa made in CHO cells; also called anti-Notch2/3 antibody 59R1
The term Kd denotes the free concentration of one partner at which half of the binding sites on the other are occupied at equilibrium, for simple one-to-one binding. In the case of B1, the figures for the binding result in test [1] and in test [2] were “no binding (tested: 2 ug/ml)” and “no binding”, respectively. In addition, the Kd worked out at 0.65 nM in test [3], 0.05 nM in test [4], 0.19 nM in test [5] and 0.32 nM in test [6].
